Patent US20240343802A1 (Zymeworks, published 2024)
Where a chain is given by its changes, count along the chain named. Numbers in names are those of the source. Read-outs that look alike come from different tables or passages of the source.

Key:
[1] = biological target: T1, CD19 on CD19-expressing Raji B cells (human, UniProt P15391 20-556); assay: FACS, Raji cells
T1 construct: whole, on cells
T1 sequence (looked up): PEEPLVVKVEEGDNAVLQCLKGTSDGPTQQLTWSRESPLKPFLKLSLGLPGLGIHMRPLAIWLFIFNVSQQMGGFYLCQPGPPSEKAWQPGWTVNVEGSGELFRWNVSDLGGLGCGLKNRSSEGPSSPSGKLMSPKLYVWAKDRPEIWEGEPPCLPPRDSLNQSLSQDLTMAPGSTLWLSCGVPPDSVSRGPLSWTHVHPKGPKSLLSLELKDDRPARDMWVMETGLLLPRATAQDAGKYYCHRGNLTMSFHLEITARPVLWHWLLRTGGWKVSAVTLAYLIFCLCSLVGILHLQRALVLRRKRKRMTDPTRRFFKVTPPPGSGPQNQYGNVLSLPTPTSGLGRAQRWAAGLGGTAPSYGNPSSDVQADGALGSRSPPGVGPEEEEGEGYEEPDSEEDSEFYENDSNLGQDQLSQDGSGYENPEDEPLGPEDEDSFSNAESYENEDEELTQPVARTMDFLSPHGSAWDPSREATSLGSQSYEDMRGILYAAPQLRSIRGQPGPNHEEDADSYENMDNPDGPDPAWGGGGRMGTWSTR

[2] = biological target: T2, CD32bWT (UniProt P31994 43-217); assay: SPR, antibody captured, FcγR injected
T2 sequence (looked up): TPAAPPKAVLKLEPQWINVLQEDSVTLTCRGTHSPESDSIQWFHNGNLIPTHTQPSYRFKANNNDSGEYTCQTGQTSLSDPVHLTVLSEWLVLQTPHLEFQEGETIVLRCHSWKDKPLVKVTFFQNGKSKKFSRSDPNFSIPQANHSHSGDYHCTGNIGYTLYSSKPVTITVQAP

[3] = biological target: T3, CD32aWT (UniProt P12318 36-218); assay: SPR, antibody captured, FcγR injected
T3 construct: also called CS32a
T3 sequence (looked up): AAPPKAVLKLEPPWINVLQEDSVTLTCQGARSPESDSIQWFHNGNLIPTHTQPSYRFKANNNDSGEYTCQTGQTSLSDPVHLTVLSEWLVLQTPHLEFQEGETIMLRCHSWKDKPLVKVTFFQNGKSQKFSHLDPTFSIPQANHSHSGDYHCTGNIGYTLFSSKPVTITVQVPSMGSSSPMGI

[4] = biological target: T4, mouse CD19 on Mouse spleen cells (mouse, UniProt P25918); assay: FACS on freshly isolated mouse spleen cells, Mean RFU normalized to human IgG
T4 construct: on the surface of freshly isolated mouse spleen cells
T4 sequence (CD19 on the cell surface, looked up): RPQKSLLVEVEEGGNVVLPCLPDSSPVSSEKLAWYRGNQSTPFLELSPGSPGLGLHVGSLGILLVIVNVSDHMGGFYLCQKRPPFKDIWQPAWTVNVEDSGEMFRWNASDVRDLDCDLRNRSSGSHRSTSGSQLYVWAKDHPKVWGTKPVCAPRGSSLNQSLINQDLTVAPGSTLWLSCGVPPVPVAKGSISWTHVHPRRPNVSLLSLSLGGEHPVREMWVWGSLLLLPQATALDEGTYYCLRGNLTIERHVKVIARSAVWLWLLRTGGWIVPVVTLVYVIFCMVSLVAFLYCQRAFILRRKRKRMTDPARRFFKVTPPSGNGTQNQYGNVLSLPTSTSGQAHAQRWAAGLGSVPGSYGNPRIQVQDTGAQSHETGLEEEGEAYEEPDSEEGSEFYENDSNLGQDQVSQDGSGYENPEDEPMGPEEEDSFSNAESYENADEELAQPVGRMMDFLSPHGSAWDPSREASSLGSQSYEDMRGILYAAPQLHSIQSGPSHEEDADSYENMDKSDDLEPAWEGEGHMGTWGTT

[5] = biological target: T5, CD3 on CD3-expressing T cells (Jurkat, HPB-ALL) (UniProt P07766 23-207); assay: FACS, HPB-ALL cells
T5 construct: whole, on cells; A multi-chain complex on cells; also called CD3 complex

[6] = biological target: T5, CD3 on CD3-expressing T cells (Jurkat, …); assay: FACS, Jurkat cells
[7] = biological target: T5, CD3 on CD3-expressing T cells (Jurkat, …); assay: FACS, HBP-ALL T cells
[8] = biological target: CD16aWT (UniProt P08637 17-208); assay: SPR, antibody captured, FcγR injected
[9] = biological target: T5, CD3 on CD3-expressing T cells (Jurkat, …); assay: whole cell binding by FACS on CD3-expressing Jurkat T cells; concentration not shown
[10] = biological target: T6, cynomologous CD3 receptor antigen (coated, ELISA) (cynomolgus [Macaca fascicularis], UniProt Q95LI5 22-117); assay: ELISA on coated cynomolgus CD3 receptor antigen ('Cyno-CD3-HEK'), anti-human Fcgamma specific secondary antibody, TMB, OD450
T6 sequence (looked up): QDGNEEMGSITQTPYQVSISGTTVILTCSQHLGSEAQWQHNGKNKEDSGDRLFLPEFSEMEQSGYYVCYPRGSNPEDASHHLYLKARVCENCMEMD

[11] = biological target: T1, CD19 on CD19-expressing Raji B cells; assay: whole cell binding by FACS on Raji B cells, RFU against concentration (nM, log axis)
[12] = biological target: T1, CD19 on CD19-expressing Raji B cells; assay: FACS, Raji cells; remark: listed apart in the source

B1: v1379, anti-CD19 BiTE (VL-VH) scFv / anti-CD3 BiTE (VH-VL) scFv heterodimeric Fc (bispecific antibody)
chain 1: DIQLTQSPASLAVSLGQRATISCKASQSVDYDGDSYLNWYQQIPGQPPKLLIYDASNLVSGIPPRFSGSGSGTDFTLNIHPVEKVDAATYHCQQSTEDPWTFGGGTKLEIKGGGGSGGGGSGGGGSQVQLQQSGAELVRPGSSVKISCKASGYAFSSYWMNWVKQRPGQGLEWIGQIWPGDGDTNYNGKFKGKATLTADESSSTAYMQLSSLASEDSAVYFCARRETTTVGRYYYAMDYWGQGTTVTVSSAAEPKSSDKTHTCPPCPAPELLGGPSVFLFPPKPKDTLMISRTPEVTCVVVDVSHEDPEVKFNWYVDGVEVHNAKTKPREEQYNSTYRVVSVLTVLHQDWLNGKEYKCKVSNKALPAPIEKTISKAKGQPREPQVYVYPPSRDELTKNQVSLTCLVKGFYPSDIAVEWESNGQPENNYKTTPPVLDSDGSFALVSKLTVDKSRWQQGNVFSCSVMHEALHNHYTQKSLSLSPGK
chain 2: not shown
notes: WT effector Fc; copies: 1 + 1
In the case of B1, the Kd [1] is reported as 0.00212 µM, the Kd [2] is reported as 0.47 µM and the Kd [3] is reported as 0.6 µM.

B2: v875, bispecific anti-CD19 BiTE (VL-VH) scFv / anti-CD3 OKT3 (VL-VH) scFv on a heterodimeric IgG1 Fc (bispecific antibody)
chain 1: B1 chain 1 with V387T
chain 2: not shown
notes: Chain A/B is assigned by order only; copies: 1 + 1
B2 was tested, and the binding result [4] was “no binding (tested: 100 nM)”, the Kd [5] was 0.0047 µM and the “Bmax (OD450)” value [6] was 1.59 OD450. It also gave a Kd [6] of 0.0214 µM, a Kd [7] of 0.0191 µM and a Kd [2] of 0.43 µM. For the same binder, the Kd [3] was 0.59 µM and the Kd [8] was 1 µM.

B3: one-armed anti-CD19 antibody (v869: anti-CD19 BiTE scFv (VL-VH) on chain A, Fc only on chain B) (antibody)
chain 1: B1 chain 1 with V387T
chain 2: not shown
notes: also called anti-CD19 OAA; anti-CD19 one arm constructs
B3: no binding [9].

B4: v1666-213-A (bispecific antibody)
chain 1: not shown
chain 2: B1 chain 1 with L271A, L272A, D302S, Y388L, T403L, K429L, T431W, A442F, V444Y
B4: no binding (tested: 300 nM) [10].

B5: v1381, anti-CD19 BiTE (VL-VH) scFv / anti-CD3 BiTE (VH-VL) scFv heterodimeric Fc with N297A (bispecific antibody)
chain 1: B1 chain 1 with N334A
chain 2: not shown
notes: Fc knock-out N297A on both chains; copies: 1 + 1
In the case of B5, the Bmax [1] is reported as 13900, the Kd [1] is reported as 0.00236 µM and the binding result [2] is reported as “no binding (tested: FcγR injected up to 10,000 nM)”. B5: no binding (tested: FcγR injected up to 10,000 nM) [3]; no binding (tested: FcγR injected up to 10,000 nM) [8].

B6: v873, bispecific anti-CD19 BiTE (VL-VH) scFv / anti-CD3 BiTE (VH-VL) scFv on a heterodimeric IgG1 Fc (bispecific antibody)
chain 1: B1 chain 1 with V387T
chain 2: not shown
notes: chain A/B is assigned by order only; also called bispecific CD19-CD3(VH-VL-BiTE)
For B6, the “EC50 (read off the curve)” value [11] was ~0.003 µM, the binding result [4] was “no binding (tested: 100 nM)” and the Kd [12] was 0.0027 µM.
